According to patent US20240190936A1 (Eli Lilly, published 2024):
Residue numbers refer to the chain shown, from its start. *1 amine or outer side, *2 acyl side, *3 side chain or, on linkers, in order; H or OH if unused. Where no end group is shown, it is not given here. Side-chain parts run from the residue outwards. [ ]: non-standard residue; d: D form. The star is where a group is joined. C20 diacid = O=C(O)CCCCCCCCCCCCCCCCCCC(=O)*; αMePhe(2-F) = C[C@](N)(Cc1ccccc1F)C(=O)O; γGlu = O=C(O)[C@H](CCC(=O)[*:2])N[*:1]; AEEA = NCCOCCOCC(=O)O; Aib = CC(C)(N)C(=O)O

Assays:
human glucagon receptor [1] = target: T1, human glucagon receptor (human, UniProt P47871 26-477); test: radioligand competition SPA, membranes of HEK293 cells overexpressing human GcgR
T1 construct: whole, on cells; cAMP assays used the whole cells; also called GcgR; hGcgR
Experimental: (§1) Radioligand competition binding assays are run to determine the equilibrium dissociation constant for Example compounds and comparator molecules.
(§2) The assays are performed in the presence of bacitracin as a non-specific blocking agent to prevent acylated moieties of test analogs from binding to protein components used in standard assay buffers (e.g., albumin).
(§3) Competition curves are plotted as the percent specific inhibition (y-axis) versus log concentration of compound (x-axis) and analyzed using a four parameter nonlinear regression fit with variable slope (ABase or Genedata).

human GIP receptor [2] = target: T2, human GIP receptor (human, UniProt P48546 22-466); test: cell-based or functional assay
T2 sequence (looked up): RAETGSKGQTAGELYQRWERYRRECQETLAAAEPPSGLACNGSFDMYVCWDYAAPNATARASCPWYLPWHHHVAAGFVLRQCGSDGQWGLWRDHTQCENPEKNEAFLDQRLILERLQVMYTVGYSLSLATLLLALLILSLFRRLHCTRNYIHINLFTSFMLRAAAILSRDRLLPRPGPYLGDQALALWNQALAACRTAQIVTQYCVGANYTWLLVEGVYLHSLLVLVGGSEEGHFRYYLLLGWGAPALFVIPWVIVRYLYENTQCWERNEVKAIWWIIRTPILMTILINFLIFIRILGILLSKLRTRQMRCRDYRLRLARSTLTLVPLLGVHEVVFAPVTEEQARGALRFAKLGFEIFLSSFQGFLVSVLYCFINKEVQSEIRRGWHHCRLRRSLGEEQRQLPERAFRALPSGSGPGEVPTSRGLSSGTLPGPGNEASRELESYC

human GLP-1 receptor [3] = target: T3, human GLP-1 receptor (human, UniProt P43220 24-463); test: cell-based or functional assay
human glucagon receptor [4] = target: T1, human glucagon receptor; test: cell-based or functional assay
human GIP receptor [5] = target: T2, human GIP receptor; test: cell-based or functional assay; remark: listed apart in the source
human GLP-1 receptor [6] = target: T3, human GLP-1 receptor; test: cell-based or functional assay; remark: listed apart in the source
human glucagon receptor [7] = target: T1, human glucagon receptor; test: cell-based or functional assay; remark: listed apart in the source
human GIP receptor [8] = target: T2, human GIP receptor; test: radioligand competition SPA, membranes of HEK293 cells overexpressing human GIPR
Experimental: as §1, §2, §3

human GLP-1 receptor [9] = target: T3, human GLP-1 receptor; test: radioligand competition SPA, membranes of HEK293 cells overexpressing human GLP-1R
Experimental: as §1, §2, §3

T1 sequence (P47871 26-477): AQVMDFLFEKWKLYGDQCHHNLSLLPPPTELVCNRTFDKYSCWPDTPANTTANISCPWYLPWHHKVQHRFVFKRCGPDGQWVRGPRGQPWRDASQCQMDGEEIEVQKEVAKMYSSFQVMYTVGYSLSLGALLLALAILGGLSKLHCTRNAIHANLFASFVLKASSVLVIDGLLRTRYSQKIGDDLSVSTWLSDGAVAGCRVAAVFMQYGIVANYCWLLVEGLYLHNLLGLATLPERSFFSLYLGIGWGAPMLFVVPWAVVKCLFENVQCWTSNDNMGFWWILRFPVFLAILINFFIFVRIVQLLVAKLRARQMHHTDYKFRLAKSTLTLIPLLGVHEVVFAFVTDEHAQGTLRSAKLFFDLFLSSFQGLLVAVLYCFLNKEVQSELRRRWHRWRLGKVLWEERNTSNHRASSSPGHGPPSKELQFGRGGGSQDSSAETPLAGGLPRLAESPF

B1: Example 1 (peptide)
peptide: YXQGTXTSDYSILLDKKAQXAFIEYLLEGGPSSGAPPPS
modifications: Aib at 2; αMeF at 6; K17 conjugated at the epsilon-amino group with (2-[2-(2-amino-ethoxy)-ethoxy]-acetyl)2-(γGlu)-CO-(CH2)18-CO2H; Aib at 20; C-terminal amide
notes: Synthetic acylated peptide
Ki (human glucagon receptor [1]): 955 pM | cAMP EC50, in the presence of FBS and BSA (human GIP receptor [2]): 1820 pM | cAMP EC50, in the presence of FBS and BSA (human GLP-1 receptor [3]): 12600 pM | cAMP EC50, in the presence of FBS and BSA (human glucagon receptor [4]): 6330 pM | cAMP EC50, in the presence of 0.1% casein (human GIP receptor [5]): 22.6 pM | cAMP EC50, in the presence of 0.1% casein (human GLP-1 receptor [6]): 112 pM | cAMP EC50, in the presence of 0.1% casein (human glucagon receptor [7]): 158 pM | Ki (human GIP receptor [8]): 27.8 pM | Ki (human GLP-1 receptor [9]): 2510 pM

B2: Example 2 (peptide)
peptide: B1 peptide with L13X
modifications: Aib at 2; αMeF at 6; αMeL at 13; K17 conjugated at the epsilon-amino group with (2-[2-(2-amino-ethoxy)-ethoxy]-acetyl)2-(γGlu)-CO-(CH2)18-CO2H; Aib at 20; C-terminal amide
notes: Synthetic acylated peptide
Ki (human glucagon receptor [1]): 1490 pM | cAMP EC50, in the presence of FBS and BSA (human GIP receptor [2]): 1340 pM | cAMP EC50, in the presence of FBS and BSA (human GLP-1 receptor [3]): 11600 pM | cAMP EC50, in the presence of FBS and BSA (human glucagon receptor [4]): 4750 pM | cAMP EC50, in the presence of 0.1% casein (human GIP receptor [5]): 32.9 pM | cAMP EC50, in the presence of 0.1% casein (human GLP-1 receptor [6]): 106 pM | cAMP EC50, in the presence of 0.1% casein (human glucagon receptor [7]): 96 pM | Ki (human GIP receptor [8]): 41.3 pM | Ki (human GLP-1 receptor [9]): 2410 pM

B3: Example 4 (peptide)
peptide: B1 peptide
modifications: Aib at 2; αMeF(2F) at 6; K17 conjugated at the epsilon-amino group with (2-[2-(2-amino-ethoxy)-ethoxy]-acetyl)-(γGlu)-CO-(CH2)18-CO2H; Aib at 20; C-terminal amide
notes: Synthetic acylated peptide
Ki (human glucagon receptor [1]): 637 pM | cAMP EC50, in the presence of FBS and BSA (human GIP receptor [2]): 1370 pM | cAMP EC50, in the presence of FBS and BSA (human GLP-1 receptor [3]): 10600 pM | cAMP EC50, in the presence of FBS and BSA (human glucagon receptor [4]): 1780 pM | cAMP EC50, in the presence of 0.1% casein (human GIP receptor [5]): 32.1 pM | cAMP EC50, in the presence of 0.1% casein (human GLP-1 receptor [6]): 145 pM | cAMP EC50, in the presence of 0.1% casein (human glucagon receptor [7]): 29.6 pM | Ki (human GIP receptor [8]): 83.2 pM | Ki (human GLP-1 receptor [9]): 1210 pM

B4: Example 3 (peptide)
peptide: B1 peptide with Q3H
modifications: Aib at 2; αMeF(2F) at 6; K17 conjugated at the epsilon-amino group with (2-[2-(2-amino-ethoxy)-ethoxy]-acetyl)2-(γGlu)-CO-(CH2)18-CO2H; Aib at 20; C-terminal amide
notes: Synthetic acylated peptide
Ki (human glucagon receptor [1]): 469 pM | cAMP EC50, in the presence of FBS and BSA (human GIP receptor [2]): 1370 pM | cAMP EC50, in the presence of FBS and BSA (human GLP-1 receptor [3]): 13100 pM | cAMP EC50, in the presence of FBS and BSA (human glucagon receptor [4]): 3460 pM | cAMP EC50, in the presence of 0.1% casein (human GIP receptor [5]): 21.5 pM | cAMP EC50, in the presence of 0.1% casein (human GLP-1 receptor [6]): 104 pM | cAMP EC50, in the presence of 0.1% casein (human glucagon receptor [7]): 30.1 pM | Ki (human GIP receptor [8]): 68.4 pM | Ki (human GLP-1 receptor [9]): 1660 pM

B5: Example 5 (peptide)
peptide: Y[Aib]QGT[αMePhe(2-F)]TSDYSILLDKK([AEEA-γGlu-C20 diacid])AQQAFIEYLLEGGPSSGAPPPS-NH2
modifications: N-terminus assumed
SMILES: CC[C@H](C)[C@H](NC(=O)[C@H](Cc1ccccc1)NC(=O)[C@H](C)NC(=O)[C@H](CCC(N)=O)NC(=O)[C@H](CCC(N)=O)NC(=O)[C@H](C)NC(=O)[C@H](CCCCNC(=O)COCCOCCNC(=O)CC[C@H](NC(=O)CCCCCCCCCCCCCCCCCCC(=O)O)C(=O)O)NC(=O)[C@H](CCCCN)NC(=O)[C@H](CC(=O)O)NC(=O)[C@H](CC(C)C)NC(=O)[C@H](CC(C)C)NC(=O)[C@@H](NC(=O)[C@H](CO)NC(=O)[C@H](Cc1ccc(O)cc1)NC(=O)[C@H](CC(=O)O)NC(=O)[C@H](CO)NC(=O)[C@@H](NC(=O)[C@](C)(Cc1ccccc1F)NC(=O)[C@@H](NC(=O)CNC(=O)[C@H](CCC(N)=O)NC(=O)C(C)(C)NC(=O)[C@@H](N)Cc1ccc(O)cc1)[C@@H](C)O)[C@@H](C)O)[C@@H](C)CC)C(=O)N[C@@H](CCC(=O)O)C(=O)N[C@@H](Cc1ccc(O)cc1)C(=O)N[C@@H](CC(C)C)C(=O)N[C@@H](CC(C)C)C(=O)N[C@@H](CCC(=O)O)C(=O)NCC(=O)NCC(=O)N1CCC[C@H]1C(=O)N[C@@H](CO)C(=O)N[C@@H](CO)C(=O)NCC(=O)N[C@@H](C)C(=O)N1CCC[C@H]1C(=O)N1CCC[C@H]1C(=O)N1CCC[C@H]1C(=O)N[C@@H](CO)C(N)=O
notes: Synthetic acylated peptide
Ki (human glucagon receptor [1]): 419 pM | cAMP EC50, in the presence of FBS and BSA (human GIP receptor [2]): 1910 pM | cAMP EC50, in the presence of FBS and BSA (human GLP-1 receptor [3]): 13000 pM | cAMP EC50, in the presence of FBS and BSA (human glucagon receptor [4]): 1870 pM | cAMP EC50, in the presence of 0.1% casein (human GIP receptor [5]): 30.6 pM | cAMP EC50, in the presence of 0.1% casein (human GLP-1 receptor [6]): 103 pM | cAMP EC50, in the presence of 0.1% casein (human glucagon receptor [7]): 34.3 pM | Ki (human GIP receptor [8]): 34.7 pM | Ki (human GLP-1 receptor [9]): 1170 pM

B6: Example 6 (peptide)
peptide: Y[Aib]QGT[αMePhe(2-F)]TSDYSILLDKK([AEEA-γGlu-C20 diacid])AQHAFIEYLLEGGPSSGAPPPS-NH2
modifications: N-terminus assumed
SMILES: CC[C@H](C)[C@H](NC(=O)[C@H](Cc1ccccc1)NC(=O)[C@H](C)NC(=O)[C@H](Cc1c[nH]cn1)NC(=O)[C@H](CCC(N)=O)NC(=O)[C@H](C)NC(=O)[C@H](CCCCNC(=O)COCCOCCNC(=O)CC[C@H](NC(=O)CCCCCCCCCCCCCCCCCCC(=O)O)C(=O)O)NC(=O)[C@H](CCCCN)NC(=O)[C@H](CC(=O)O)NC(=O)[C@H](CC(C)C)NC(=O)[C@H](CC(C)C)NC(=O)[C@@H](NC(=O)[C@H](CO)NC(=O)[C@H](Cc1ccc(O)cc1)NC(=O)[C@H](CC(=O)O)NC(=O)[C@H](CO)NC(=O)[C@@H](NC(=O)[C@](C)(Cc1ccccc1F)NC(=O)[C@@H](NC(=O)CNC(=O)[C@H](CCC(N)=O)NC(=O)C(C)(C)NC(=O)[C@@H](N)Cc1ccc(O)cc1)[C@@H](C)O)[C@@H](C)O)[C@@H](C)CC)C(=O)N[C@@H](CCC(=O)O)C(=O)N[C@@H](Cc1ccc(O)cc1)C(=O)N[C@@H](CC(C)C)C(=O)N[C@@H](CC(C)C)C(=O)N[C@@H](CCC(=O)O)C(=O)NCC(=O)NCC(=O)N1CCC[C@H]1C(=O)N[C@@H](CO)C(=O)N[C@@H](CO)C(=O)NCC(=O)N[C@@H](C)C(=O)N1CCC[C@H]1C(=O)N1CCC[C@H]1C(=O)N1CCC[C@H]1C(=O)N[C@@H](CO)C(N)=O
notes: Synthetic acylated peptide
Ki (human glucagon receptor [1]): 382 pM | cAMP EC50, in the presence of FBS and BSA (human GIP receptor [2]): 1410 pM | cAMP EC50, in the presence of FBS and BSA (human GLP-1 receptor [3]): 8940 pM | cAMP EC50, in the presence of FBS and BSA (human glucagon receptor [4]): 1760 pM | cAMP EC50, in the presence of 0.1% casein (human GIP receptor [5]): 34.9 pM | cAMP EC50, in the presence of 0.1% casein (human GLP-1 receptor [6]): 115 pM | cAMP EC50, in the presence of 0.1% casein (human glucagon receptor [7]): 29.3 pM | Ki (human GIP receptor [8]): 38.8 pM | Ki (human GLP-1 receptor [9]): 822 pM
